{"source": "paper PMC9889962", "target": "recombinant human FcγRI receptor (CD64) (UniProt P12314)", "sequence (P12314 16-374)": "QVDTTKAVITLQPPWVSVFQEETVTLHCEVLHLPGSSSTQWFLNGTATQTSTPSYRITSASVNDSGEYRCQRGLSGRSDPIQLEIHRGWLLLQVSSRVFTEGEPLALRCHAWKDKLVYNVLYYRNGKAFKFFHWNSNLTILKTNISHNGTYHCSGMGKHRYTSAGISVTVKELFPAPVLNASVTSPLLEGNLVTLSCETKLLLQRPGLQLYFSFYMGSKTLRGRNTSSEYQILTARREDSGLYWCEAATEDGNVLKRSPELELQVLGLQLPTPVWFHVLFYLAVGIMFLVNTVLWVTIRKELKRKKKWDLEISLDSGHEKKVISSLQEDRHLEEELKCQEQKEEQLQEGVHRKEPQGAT", "assay": "SPR", "details": "immobilized human FcγRI (CD64); parent: est. 100; read off a plot", "data": [{"substance": "IgG1 (control) FQQ", "values": [{"measurement": "percent of parent", "value": 32, "unit": "%"}]}, {"substance": "IgG1 (control) Sigma", "values": [{"measurement": "percent of parent", "value": 3.5, "unit": "%"}]}, {"substance": "IgG1 (control) LAGA", "values": [{"measurement": "percent of parent", "value": 8.5, "unit": "%"}]}, {"substance": "IgG1 (control) LGGR", "values": [{"measurement": "percent of parent", "value": 6, "unit": "%"}]}, {"substance": "IgG1 (control) FES", "values": [{"measurement": "percent of parent", "value": 21, "unit": "%"}]}, {"substance": "IgG1 (control) Agly", "values": [{"measurement": "percent of parent", "value": 24, "unit": "%"}]}, {"substance": "IgG1 (control) DAPA", "values": [{"measurement": "percent of parent", "value": 34, "unit": "%"}]}, {"substance": "IgG1 (control) LALA", "values": [{"measurement": "percent of parent", "value": 27, "unit": "%"}]}, {"substance": "IgG1 (control) LALE", "values": [{"measurement": "percent of parent", "value": 8, "unit": "%"}]}, {"substance": "IgG1 (control) LALAKA", "values": [{"measurement": "percent of parent", "value": 26, "unit": "%"}]}]}
